Substitutions are numbered along the chain they refer to.
B1: anti-c-Met HuMab 045 (IgG1) (antibody, V domains shown)
VH: EVQLLESGGGLVQPGGSLRLSCAASGFTFSSYAMSWVRQAPGKGLEWVSVISGSGGITYYADSVKGRFTISRDNSKNTLYLQMNSLRAEDTAVYYCARDRGWGSDYWGQGTLVTVSS
VL: EIVLTQSPATLSLSPGERATLSCRASQSVSSYLAWYQQKPGQAPRLLIYDASNRATGIPARFSGSGSGTDFTLTISSLEPEDFAVYYCQQRSNWPFTFGPGTKVDIK
notes: also called TH1016-045; PC1016-045
B2: anti-c-Met HuMab 101 (IgG1) (antibody, V domains shown)
VH: QVQLVQSGGEVKKPGASVKVSCKASGYTFTRHGITWVRQAPGQGLEWMGWISADNGNTNYAQKFQDRVTMTTDTSTSTAYMELRSLRSDDTAVYFCARVFRYFDWLLPYFDYWGQGTLVTVST
VL: not shown
B3: IgG1-024 (antibody, V domains shown)
VH: EVQLLESGGGLVQPGGSLRLSCVASGFTFSSYAMSWVRQAPGKGLEWVSAISGSSGGSTYYVDSVKGRFTISRANSKNTLYLQMNSLRAEDTAVYYCAKDLDRGWMGYFGYWGQGTLVTVSS
VL: DIQMTQSPSSVSASVGDRVTITCRASQGISSWLAWYQHKPGKAPKLLIYAASSLQSGVPSRFSGSGSGTDFTLTISSLQPEDFATYYCQQANSFPTFGQGTRLEIK
notes: also called TH1016-024; PC1016-024
B4: IgG1-1016-069 (antibody, V domains shown)
VH: QVQLVQSGAEVKKPGASVKVSCETSGYTFTSYGISWVRQAPGHGLEWMGWISAYNGYTNYAQKLQGRVTMTTDTSTSTAYMELRSLRSDDTAVYYCARDLRGTNYFDYWGQGTLVTVSS
VL: DIQMTQSPSSVSASVGDRVTITCRASQGISNWLAWFQHKPGKAPKLLIYAASSLLSGVPSRFSGSGSGTDFTLTISSLQPEDFATYYCQQANSFPITFGQGTRLEIK
notes: also called clone 069; TH1016-069
B5: anti-c-Met HuMab 181 (IgG1) (antibody, V domains shown)
VH: B4 VH with E23K, T24A, H43Q, A53T, N104A
VL: B4 VL with F36Y
notes: also called TH1016-181; PC1016-181
B6: IgG1-1016-058 (antibody, V domains shown)
VH: EVQLVESGGGLVKPGGSLKLSCAASGFTFSDYYMYWVRQTPEKRLEWVATISDDGSYTYYPDSVKGRFTISRDNAKNNLYLQMSSLKSEDTAMYYCAREGLYYYGSGSYYNQDYWGQGTLVTVSS
VL: AIQLTQSPSSLSASVGDRVTITCRASQGLSSALAWYRQKPGKAPKLLIYDASSLESGVPSRFSGSGSGTDFTLTISSLQPEDFATYYCQQFTSYPQITFGQGTRLEIK
notes: also called IgG1-058; TH1016-058
B7: anti-c-Met HuMab 008 (IgG1) (antibody, V domains shown)
VH: EVQLVQSGAEVKKPGESLKISCKGSGYSFTSYWIGWVRQMPGKGLEWMGIIYPGDSETRYSPSFQGQVTISADKSISTAYLQWSSLKASDTAMYYCARQEITGEFDYWGQGTLVTVSS
VL: AIQLTQSPSSLSASVGDRVTITCRASQGISSALAWYQQKPGKAPKLLIYDASSLESGVPSRFSGSGSGTDFTLTISSLQPEDFATYYCQQFNSYPRTFGQGTKVEIK
notes: also called TH1016-008; PC1016-008
B8: anti-c-Met HuMab 035 (IgG1) (antibody, V domains shown)
VH: B7 VH with E57D, S84N
VL: B6 VL with L29I, R37Q, T92N, Q96M, I97Y, R104K
notes: also called P1016-035; TH1016-035-D09
B9: anti-c-Met HuMab 005 (IgG1) (antibody, V domains shown)
VH: QVQLVQSGAEVKKPGSSVKVSCKASGGTFSSYGFGWVRQAPGQGLEWMGRISPILGIANYAQMFQGRVTITADKSTSTAYMELSSLRSEDTAVYYCARDVGYDWPDTFDIWGQGTMVIVSS
VL: DIQMTQSPSSLSASVGDRVTITCRASQGISSWLAWYQQKPEKAPKSLIYAASSLQSGVPSRFSGGGSGTDFTLTISSLQPEDFATYYCQQYNSFPPTFGQGTKVEIK
notes: also called TH1016-005; PC1016-005
B10: anti-c-Met HuMab 098 (IgG1) (antibody, V domains shown)
VH: QVQLVQSGAEVKKPGASVKVSCKASGYTFTNFGISWVRQAPGQGLEWMGWISAFNGHTDYSQKVQGRVTMTTDTSTSTAYMELRSLRSDDTAVFYCARSHYYGSGSPFDYWGQGTLVTVSS
VL: B9 VL with S31N, G65S, Q89H, N92K, F94Y, P96W
notes: also called TH1016-098; PC1016-098
B11: IgG1-1016-022 (antibody, V domains shown)
VH: QVQLVESGGGVVQPGRSLRLSCAASGFTFSSYAMHWVRQAPGKGLEWVAVISYDGSNKYYADSVKGRFTISRDNSKNTLYLQMNSLRAEDTAVYYCARELLWFGELWGYFDLWGRGTLVTVSS
VL: B4 VL with N31S, F36Y, L55Q, Q90E, N92S, P95T, I96W, R103K, L104V
notes: also called TH1016-022; PC1016-022
B12: anti-c-Met HuMab 006 (IgG1) (antibody, V domains shown)
VH: B9 VH with Y32F, F34I, S52F, I57T, S84T, W104S, P105A, T107A, I118T
VL: B9 VL with G65S, F94Y
notes: also called TH1016-006; PC1016-006

target: T1, cMetECDHis (human, UniProt P08581 25-932, limits assumed, biotinylated in the cross-block ELISA of Example 17); experiment: cross-block ELISA; competitor 024
T1 construct: Expressed in HEK-293F cells; also called soluble cMetECDHis; biotinylated cMetECDHis
Protocol: First, the optimal coating concentrations of the tested anti-c-Met antibodies and the optimal cMetECDHis concentration were determined. Therefore, ELISA wells were coated overnight at 4° C. with anti-c-Met HuMabs serially diluted in PBS (8 μg/mL in 2-fold dilutions). Next, the ELISA wells were washed with PBST (PBS supplemented with 0.05% Tween-20 [Sigma-Aldrich, Zwijndrecht, The Netherlands]) and blocked for one hour at room temperature (RT) with PBSTC (PBST supplemented 2% [v/v] chicken serum [Gibco, Paisley, Scotland]). Subsequently, the ELISA wells were washed with PBST and incubated for one hour at RT with biotinylated cMetECDHis serially diluted in PBSTC (1 μg/mL in 2-fold dilutions). Unbound biotinylated cMetECDHis was washed away with PBST, and bound biotinylated cMetECDHis was incubated for one hour at RT with 0.1 μg/mL Streptavidin-poly-HRP (Sanquin, Amsterdam, The Netherlands) diluted in PBST.
ELISA wells were coated with anti-c-Met antibody at a sub-optimal dose as described above. After blocking of the ELISA wells, they were incubated with the predetermined concentration of biotinylated cMetECDHis in the presence of an excess of anti-c-Met antibody. The reaction was developed as described above. Residual binding was expressed as a percentage relative to the binding observed in the absence of competitor antibody.

residual binding, % of no competitor [%]	Binder
102	B1
40.5	B2
5.4	B3
6.6	B4
4.3	B5
109	B6
103	B7
121	B8
114	B9
12.9	B10
99.4	B11
113	B12

target: T2, cMetSEMA-567His8 (human, UniProt P08581 25-567, limits assumed); experiment: TR-FRET; displacement of AlexaFluor-647-HGF from cMetSEMA-567His8
T2 construct: In the TR-FRET assay detected by anti-6xhis Europium3+; also called cMetSEMAHis; SEMA domain of c-Met; not shown: C-terminal His tag; the text says His9, the construct name says His8
Protocol: Therefore, the interaction of anti-c-Met antibodies with the SEMA domain of the c-Met receptor was studied using TR-FRET technology. […] The mean fluorescent intensity at 665 nm was measured on the EnVision 2101 Multilabel reader (PerkinElmer).
A 4-fold serial dilution of unlabeled anti-c-Met antibody ranging from 0.49-8000 ng/mL was tested. After overnight incubation at 4° C. in the dark, mean fluorescence intensity at 665 nm was measured using the EnVision 2101 Multilabel reader applying the following settings: Lance/Delfia dual mirror, emission filter 615-665 nm, excitation filter 320 nm, delay time 60 μs, window 100 μs, 100 flashes, 2000 μs per cycle and bidirectional row-by-row reading. To determine IC₅₀ values, the binding curves were analyzed with non-linear regression (sigmoidal dose-response with variable slope) using GraphPad Prism V4.03 software (GraphPad Software, San Diego, Calif., USA).

% inhibition [%]	IC50 [µg/mL]	Binder
92	0.17	B1
96	0.53	B2
95	0.39	B3
97	0.54	B4
93	0.34	B5
99	0.15	B6
92	0.16	B9
98	0.55	B10
77	0.37	B11
92	0.16	B12

target: T3, recombinant human c-Met extracellular domain (R&D systems) (human, UniProt P08581 25-932); experiment: competition ELISA, residual Europium-HGF signal at 615 nm at the lower plateau of the fit; sheet prints no competing mAb ~66000, no HGF-Europium ~600; lower panel
T3 construct: extracellular domain; Bought reagent; also called coated extracellular domain of c-Met; recombinant c-Met
Protocol: (§1) ELISA wells were coated overnight at 4° C. with 0.5 μg/mL recombinant human c-Met extracellular domain (R&D systems, Minneapolis, USA) diluted in PBS. Next, the ELISA wells were washed with PBST (PBS supplemented with 0.05% Tween-20 [Sigma-Aldrich, Zwijndrecht, The Netherlands]) and blocked for one hour at room temperature (RT) with PBST supplemented with 2% (v/v) chicken serum (Gibco, Paisley, Scotland). […] Mean fluorescence intensity at 615 nm was measured using the EnVision 2101 Multilabel reader (PerkinElmer) applying the following settings: Lance/Delfia dual mirror, emission filter 615, excitation filter 340 nm, delay time 400 μs, window 400 μs, 100 flashes, 2000 μs per cycle and bidirectional row-by-row reading. To determine IC₅₀ values, the binding curves were analyzed with non-linear regression (sigmoidal dose-response with variable slope, top-values constrained to a shared value for all data-sets) using GraphPad Prism V4.03 software (GraphPad Software, San Diego, Calif., USA).
(§2) FIG. 5 depicts representative examples of HGF binding inhibition curves of anti-c-Met antibodies for binding to the extracellular domain of recombinant human c-Met. 5D5 was used as positive control antibody. All anti-c-Met antibodies in the experiment shown were able to compete with Europium^{3±}-conjugated HGF for binding to recombinant c-Met. […] Without adding Europium³⁺-conjugated HGF, roughly ˜600 relative fluorescent units (RFU) were detected, indicating the signal when maximal inhibition is accomplished. When binding of Europium³⁺-conjugated HGF was not inhibited, approximately ˜66,000 RFU were detected.

Bottom [RFU]	Binder
8380	B2
15000	B4
16300	B5
12700	B10

target: T3, recombinant human c-Met extracellular …; experiment: competition ELISA, residual Europium-HGF signal at 615 nm at the lower plateau of the fit; sheet prints no competing mAb ~66000, no HGF-Europium ~600; upper panel
Protocol: as §1, §2

Bottom [RFU]	Binder
12600	B1
13100	B3
5200	B6
30100	B7
23300	B8
6940	B9
18200	B11
5630	B12

target: T3, recombinant human c-Met extracellular …; experiment: competition ELISA on coated recombinant c-Met extracellular domain; blocked ligand Europium-conjugated HGF; column headed EC50 on the sheet, called IC50 in paragraph 270; lower panel
Protocol: as §1, §2

IC50 [µg/mL]	Binder
0.0558	B2
0.0267	B4
0.0103	B5
0.0135	B10

target: T3, recombinant human c-Met extracellular …; experiment: competition ELISA on coated recombinant c-Met extracellular domain; blocked ligand Europium-conjugated HGF; column headed EC50 on the sheet, called IC50 in paragraph 270; upper panel
Protocol: as §1, §2

IC50 [µg/mL]	Binder
0.0165	B1
0.0168	B3
0.00727	B6
0.00788	B7
0.0348	B8
0.0362	B9
0.00927	B11
0.0799	B12
